Test results reported in patent publication US20200247855A1 (published 2020).

Key:
Experiment in all cases: BLI
CXCL8_HUMAN = CXCL8_HUMAN (human, UniProt P10145 28-99)
CXCL1_HUMAN = CXCL1_HUMAN (human, UniProt P09341 35-107)
CCL19_HUMAN = biological target: T1, CCL19_HUMAN (human, UniProt Q99731 22-98)
T1 chain: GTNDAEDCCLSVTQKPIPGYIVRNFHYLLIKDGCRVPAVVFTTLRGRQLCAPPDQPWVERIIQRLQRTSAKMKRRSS

CCL3L1_HUMAN = biological target: T2, CCL3L1_HUMAN (human, UniProt P16619 24-93)
T2 chain: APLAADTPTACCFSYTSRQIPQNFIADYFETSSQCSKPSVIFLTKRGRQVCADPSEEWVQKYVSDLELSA

CCL7_HUMAN = CCL7_HUMAN (human, UniProt P80098 24-99)
Chain of CCL7_HUMAN (P80098 24-99): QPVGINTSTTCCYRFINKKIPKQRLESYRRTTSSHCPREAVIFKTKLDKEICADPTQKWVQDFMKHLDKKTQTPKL

CCL24_HUMAN = biological target: T3, CCL24_HUMAN (human, UniProt O00175 27-104)
T3 chain: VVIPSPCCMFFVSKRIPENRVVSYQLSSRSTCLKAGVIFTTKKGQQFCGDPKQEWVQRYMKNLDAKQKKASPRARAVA

CCL8_HUMAN = biological target: T4, CCL8_HUMAN (human, UniProt P80075 24-99)
T4 chain: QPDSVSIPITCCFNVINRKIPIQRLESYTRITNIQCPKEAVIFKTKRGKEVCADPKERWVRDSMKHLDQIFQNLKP

CCL21_HUMAN = biological target: T5, CCL21_HUMAN (human, UniProt O00585 24-134)
T5 chain: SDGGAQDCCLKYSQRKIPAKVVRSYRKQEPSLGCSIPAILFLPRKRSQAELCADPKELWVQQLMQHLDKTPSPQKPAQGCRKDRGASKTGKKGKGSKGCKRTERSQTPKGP

CCL18_HUMAN = biological target: T6, CCL18_HUMAN (human, UniProt P55774 21-89)
T6 chain: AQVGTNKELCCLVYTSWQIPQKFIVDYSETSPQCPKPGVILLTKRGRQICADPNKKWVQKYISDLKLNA

CCL11_HUMAN = CCL11_HUMAN (human, UniProt P51671 24-97)
Chain of CCL11_HUMAN (P51671 24-97): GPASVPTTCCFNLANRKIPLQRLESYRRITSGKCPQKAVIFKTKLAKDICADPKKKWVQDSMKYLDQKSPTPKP

CCL15_HUMAN = biological target: T7, CCL15_HUMAN (human, UniProt Q16663 22-113)
T7 chain: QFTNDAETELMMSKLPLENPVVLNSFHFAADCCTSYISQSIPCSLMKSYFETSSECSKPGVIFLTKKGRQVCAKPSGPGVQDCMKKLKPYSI

CCL27_HUMAN = biological target: T8, CCL27_HUMAN (human, UniProt Q9Y4X3 25-112)
T8 chain: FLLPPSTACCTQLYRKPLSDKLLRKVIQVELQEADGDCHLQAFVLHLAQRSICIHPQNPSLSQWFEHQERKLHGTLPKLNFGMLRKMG

CCL23_HUMAN = biological target: T9, CCL23_HUMAN (human, UniProt P55773 22-120)
T9 chain: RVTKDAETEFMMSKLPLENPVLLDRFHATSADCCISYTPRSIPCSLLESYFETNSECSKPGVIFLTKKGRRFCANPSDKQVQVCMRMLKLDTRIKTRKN

CCL4_HUMAN = biological target: T10, CCL4_HUMAN (human, UniProt P13236 24-92)
T10 chain: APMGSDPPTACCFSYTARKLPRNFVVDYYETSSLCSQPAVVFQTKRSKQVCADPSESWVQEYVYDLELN

CCL17_HUMAN = biological target: T11, CCL17_HUMAN (human, UniProt Q92583 24-94)
T11 chain: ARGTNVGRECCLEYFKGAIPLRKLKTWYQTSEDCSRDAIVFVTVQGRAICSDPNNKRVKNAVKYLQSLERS

CCL14_HUMAN = biological target: T12, CCL14_HUMAN (human, UniProt Q16627 22-93)
T12 chain: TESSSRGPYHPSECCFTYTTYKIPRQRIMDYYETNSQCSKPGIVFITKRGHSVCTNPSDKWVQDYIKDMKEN

CCL3_HUMAN = biological target: T13, CCL3_HUMAN (human, UniProt P10147 24-92)
T13 chain: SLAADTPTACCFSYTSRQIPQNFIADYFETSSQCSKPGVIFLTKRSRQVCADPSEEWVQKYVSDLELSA

CCL5_HUMAN = biological target: T14, CCL5_HUMAN (human, UniProt P13501 24-91)
T14 chain: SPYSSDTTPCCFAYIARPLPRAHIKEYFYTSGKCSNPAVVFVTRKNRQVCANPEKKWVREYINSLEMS

CCL13_HUMAN = CCL13_HUMAN (human, UniProt Q99616 24-98)
Chain of CCL13_HUMAN (Q99616 24-98): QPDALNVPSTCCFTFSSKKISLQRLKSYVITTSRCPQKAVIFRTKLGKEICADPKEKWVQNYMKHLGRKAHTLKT

Chain of CXCL8_HUMAN (P10145 28-99): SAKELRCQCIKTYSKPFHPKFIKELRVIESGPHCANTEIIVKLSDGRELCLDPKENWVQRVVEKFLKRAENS
Chain of CXCL1_HUMAN (P09341 35-107): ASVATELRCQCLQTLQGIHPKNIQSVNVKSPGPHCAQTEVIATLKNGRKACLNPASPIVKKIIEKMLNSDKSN

B1: P1243:G4S:P1156 (designed binder)
chain: RNHTEDNSTEYYDYEEARCACPARHLNNTNGTVLKLLGCHYFCNGTLCTAPDGYPCYNLTAQQVRTLTTYPNTSCAVGVCMKGTCVKNGTMEQCFKTPGGGGSADDDNELFTVQYCGMNCTKDEGGTWTGCTGKKEGCKCYHESGKNYGLCLSTEYTDFSQYGNPSDSEIEAAKPKRSDTLSH
- Kd (CXCL8_HUMAN): 7.63 nM
- Kd (CXCL1_HUMAN): 17.4 nM
- Kd (CCL19_HUMAN): 2.92 nM
- Kd (CCL3L1_HUMAN): 4.06 nM
- Kd (CCL7_HUMAN): 49 nM
- Kd (CCL24_HUMAN): 16.4 nM
- Kd (CCL8_HUMAN): 381 nM
- Kd (CCL21_HUMAN): 53.8 nM
- Kd (CCL18_HUMAN): 0.543 nM
- Kd (CCL11_HUMAN): 19.7 nM
- Kd (CCL15_HUMAN): 8.71 nM
- Kd (CCL27_HUMAN): 24.4 nM
- Kd (CCL23_HUMAN): 0.632 nM
- Kd (CCL4_HUMAN): 19.4 nM
- Kd (CCL17_HUMAN): 3.51 nM
- Kd (CCL14_HUMAN): 1.99 nM
- Kd (CCL3_HUMAN): 16.4 nM
- Kd (CCL5_HUMAN): 8.95 nM
- Kd (CCL13_HUMAN): 1.33 nM
